Source: patent US9486502B2, “Methods of administering interferon gamma to absorb fluid from the subretinal space” (The United States of America, as represented by the …, priority 2008, dated 2016)

Tested on: hfRPE monolayers
Experiment: fluid transport (JV, TEP, RT) across hfRPE monolayers in modified Üssing chamber
Type: cell-based, human
Text: Confluent monolayers of hfRPE cultured on transwells were mounted in a modified Üssing chamber and transepithelial water flow measurements (JV) were made with a capacitance probe technique as described previously in Maminishkis, A., et al., Invest Ophthalmol Vis Sci, 2006, 47, 3612-3624; Shi, G., et al., Invest Ophthalmol Vis Sci, 2008, 49, 4620-4630; Edelman, J. L., et al., Invest Ophthalmol Vis Sci, 1991, 32, 3033-3040; Jiang, C., et al., Science, 1993, 262, 424-427; and Maminishkis, A., et al., Invest Ophthalmol Vis Sci, 2002, 43, 3555-3566, each incorporated herein by reference in its entirety.
Tissue viability was ascertained by recording transepithelial potential (TEP) and total tissue resistance (RT). It should be noted that the solution composition changes in this chamber were relatively slow (≈1-2 chamber volumes per minute) and the data sampling rate was once per minute, more than two orders of magnitude slower than the sampling rate in the electrophysiology chamber (see below). Therefore it was not possible to record fast changes, in seconds or minutes, in JV, TEP, or RT. After addition of IFNγ to the apical or basal baths, steady-state JV, TEP, and RT were recorded for 20-30 minutes. In control experiments, successive additions of IFNγ were made to test for the repeatability and reversibility of responses. To block IFNγ effects, RPE cells were incubated for 30-60 minutes with a blocking antibody against IFNγ R1, JAK inhibitor I, PKA inhibitors (H-89, EMD Biosciences; RP-8-Br-cAMPS, Sigma-Aldrich), nitric oxide synthase inhibitor (aminoguanidine hydrochloride, Sigma-Aldrich), P38 MAPK inhibitors (SB203580 or SB20290), or CHX. Other components of this signaling pathway were studied using P38 MAPK inhibitors (SB203580 and SB202190). Relatively specific Cl channel inhibitors, CFTRinh-172 or DIDS (EMD Biosciences, La Jolla, Calif.), were used to block cAMP or Ca^2+-activated Cl channels; experiments with CFTRinh-172 were performed as described in Muanprasat, C., et al., J Gen Physiol, 2004, 124, 125-137, incorporated herein by reference in its entirety. In chronic experiments, paired hfRPE tissues with matched RT values were incubated for 4-24 hours with IFNγ or CHX. The subsequent changes in JV, RT, and TEP were measured in Ringer's solution or serum free cell culture media as previously described in Shi, G., et al., Invest Ophthalmol Vis Sci, 2008 and Maminishkis, A., et al., Invest Ophthalmol Vis Sci, 2006, 47, 3612-3624, each incorporated herein by reference in its entirety. Intracellular levels of NO were elevated with 1-Hydroxy-2-oxo-3-(3-aminopropyl)-3-isopropyl-1-triazene (NOC-5, Enzo Life Sciences, Plymouth, Pa.). 8-Br-cGMP was purchased from Sigma-Aldrich.

B1: IFNγ: pleiotropic cytokine produced by T- and NK-cells; obtained from Peprotech (protein, UniProt P01579 24-161, looked up)
Interferon gamma: QDPYVKEAENLKKYFNAGHSDVADNGTLFLGILKNWKEESDRKIMQSQIVSFYFKLFKNFKDDQSIQKSVETIKEDMNVKFFNSNKKKRDDFEKLTNYSVTDLNVQRKAIHELIQVMAELSPAAKTGKRKRSQMLFRG
Question: How did the “mean JV after IFNγ” value (10 experiments, from 12.9±1.6, mean±s.e.m.) turn out when B1 was run?
Answer: The value was 20.5±3.1 μl·cm^−2·hr^−1.

Question: And the “TEP after 24 hour IFNγ” value (IFNγ 5 ng/ml apical and basal, 24 hours)?
Answer: The value was “no significant TEP changes”.

Question: What about the “mean JV after 24 hour IFNγ” value (IFNγ 5 ng/ml apical and basal, 24 hours, control 7.6±1.5, 5 experiments) of the same molecule?
Answer: Its value is 15.2±2.0 μl·cm^−2·hr^−1.

Question: And the “cell viability as measured by TEP and RT” value (IFNγ 5 ng/ml basal bath)?
Answer: The value was “no apparent changes”.

Question: What about the “increase in JV” value (IFNγ 5 ng/ml in the basal bath, FIG. 14A) of the same molecule?
Answer: The value was roughly 8.6 μl·cm^−2·hr^−1.

Question: What about the “RT after 24 hour IFNγ” value (IFNγ 5 ng/ml, 24 hours, from 592±80, n=5) of the same molecule?
Answer: The value was 356±139 Ω·cm^2.

Question: What about the “effect on JV” value (IFNγ added to the apical bath) of the same molecule?
Answer: Its value is “no significant effect”.

Question: And the IFNγ-induced resistance change (at 24 hours)?
Answer: Its IFNγ-induced resistance change is “≈ 2 fold”.

Question: What about the “mean IFNγ-induced resistance change” value (at 24 hours) of the same molecule?
Answer: The value was “≈ 240 Ω·cm^2”.

Question: What about the “JV after subsequent addition of IFNγ” value (continued presence of Rp-8-Br-cAMPS 2 μM, six experiments) of the same molecule?
Answer: Its value is 8.4±1.7 μl·cm^−2·hr^−1.

Question: What about the “JV after subsequent addition of IFNγ” value (in presence of H-89, four experiments) of the same molecule?
Answer: Its value is 14.7±4.7 μl·cm^−2·hr^−1.

Question: What about the “mean JV after IFNγ” value (nine experiments (P38 series), from 7.5 ±1.9) of the same molecule?
Answer: The value was 16.5±2.2 μl·cm^−2·hr^−1.

Question: And the “mean JV after IFNγ” value (three experiments (H-89 series), from 8.4±1.6)?
Answer: Its value is 20.1±0.2 μl·cm^−2·hr^−1.
